From patent US20050002904A1, “Uses of vascular endothelial growth factor and type I collagen inducible protein (VCIP)” (priority 2003, published 2005)
Changes are numbered by the printed parent chain. Blank lines part the entries; values can stand above or below the binder they belong to.

Molecular target: αvβ3 and α5β1 integrins presented on adjacent cells
Test: cell-based or functional assay

- % cell aggregates of WT cells with … 10 nM: 67%
- % cell aggregates of WT cells with … 30 nM: 46%
- % cell aggregates of WT cells with … 50 nM: 28%
Binder: NYRCRGDDSK [peptide …]

- % cell aggregates, HEK cells stably expressing pLNCX2-VCIP-RGD (WT), no substance: 94%
B1: wild-type VCIP/PAP2b, HA-tagged, expressed from pLNCX2-VCIP-RGD, O14495 1-311 (protein)
chain: YPYDVPDYAYPYDVPDYAYPYDVPDYAMQNYKYDKAIVPESKNGGSPALNNNPRRSGSKRVLLICLDLFCLFMAGLPFLIIETSTIKPYHRGFYCNDESIKYPLKTGETINDAVLCAVGIVIAILAIITGEFYRIYYLKKSRSTIQNPYVAALYKQVGCFLFGCAISQSFTDIAKVSIGRLRPHFLSVCNPDFSQINCSEGYIQNYRCRGDDSKVQEARKSFFSGHASFSMYTMLYLVLYLQARFTWRGARLLRPLLQFTLIMMAFYTGLSRVSDHKHHPSDVLAGFAQGALVACCIVFFVSDLFKTKTTLSLPAPAIRKEILSPVDIIDRNNHHNMM

- % cell aggregates, HEK cells stably expressing pLNCX2-VCIP-RGE (MT), no substance: 0%
B2: mutant VCIP/PAP2b-RGE, HA-tagged, expressed from pLNCX2-VCIP-RGE, O14495 1-311 (protein)
chain: B1 chain with D211E

- % cell aggregates of WT cells with … 10 nM: 92%
- % cell aggregates of WT cells with … 30 nM: 89%
- % cell aggregates of WT cells with … 50 nM: 90%
Binder: NYRCRADDSK [mutant peptide …]
